Laboratory results published in US20220143148A1, “COMPOSITIONS AND METHODS FOR MODULATING CGRP SIGNALING TO REGULATE INTESTINAL INNATE LYMPHOID CELLS” (The Broad Institute, Inc., priority 2019, published 2022).

Tested on: small intestinal immune cells
Experiment: Droplet-based scRNA-seq of small intestinal immune cells (LP and PP), OVA vs PBS, clustering and differential expression
Format: in vivo, mouse
Source text: To comprehensively characterize small intestinal immune cells, Applicants generated scRNA-Seq profiles for 58,067 immune cells collected from lamina propria (LP) and Peyer's patch (PP) regions at steady state and after induction of a type 2 inflammatory reaction to ovalbumin (OVA) (Brandt et al., 2003) (FIGS. 1A and 8A). To ensure sufficient representation of rare cells, Applicants combined a normalization strategy—removing by flow sorting either a portion of IgD+ naïve B cells, which are the most abundant cell type in PPs, or all CD19+ and CD3+ T cells (FIG. 8B, Methods)—with profiling of a sufficiently large number of cells number (P>0.99 to recover at least 15 cells from each cluster, Methods) by massively parallel scRNA-seq (Haber et al., 2017) (Methods). Applicants obtained 36,797 and 21,270 high quality cells passing initial filtering (Methods) from PP and LP regions, respectively.
Overall, Applicants annotated 27 cell subsets across the two compartments, spanning T cells, B cells, ILCs, dendritic cells (DCs), myeloid cells and stromal cells, in frequencies ranging from 0.07% to 14%. Briefly, Applicants first partitioned the cells from the PP regions by unsupervised clustering (Methods) into 46 clusters, retained the 97% of cells that were robustly assigned cell identities in each cluster (Methods), assigned the cells from the LP regions to the 46 clusters using a classifier (Methods), and visualized the data with scvis (Ding et al., 2018), a deep generative model-based method (FIGS. 1B and 8C, Methods). Next, Applicants identified genes that were differentially expressed between the cells in each cluster and the remaining cells (Table 1, Methods), as well as between pairs of clusters (Table 2), to elucidate identities of similar cell types/states. Applicants excluded from downstream analysis clusters mostly consisting of contaminants from epithelium, likely doublets, or cells with a small number of Unique Molecular Identifiers (UMIs) (FIGS. 1C and 8D), or lacking distinct markers (Methods). Altogether, Applicants retained 27 clusters spanning 85% of the cells and each associated with distinct marker genes (FIG. 8E, Methods).
To induce allergic reaction to OVA, 6 to 7 weeks old mice were sensitized twice, two weeks apart, with 50 μg of OVA plus 1 mg of aluminum potassium sulfate adjuvant via intraperitoneal injection. Two weeks later, mice were orally administered with 50 mg of OVA on every other day for a total of five times. 1 μg of α-CGRP peptide was administered simultaneously when indicated. Mice were deprived of food for 3-4 hours in cages with wood chip bedding for limiting antigen degradation in the stomach before each intragastric challenge.
Isolation of cells from Peyer's patches (PPs). Peyer's patches (PPs) were carefully dissected from the small intestine under a stereo microscope using a fine scissor, pierced once with a fine forcep. Tissues were digested in freshly made digestion buffer (RPMI-1640 containing 100 μg/ml Liberase™ and 50 μg/ml DNase I at 37° C. on a roto-mixer. After 15 min, tissues were very gently mixed using a 1 ml pipette. The supernatant was collected and added to ice-cold MACS buffer (pH 7.4; PBS plus 2% FCS and 2 mM EDTA). Pre-warmed (37° C.) fresh digestion buffer was added to the remaining tissues. After rotation at 37° C. for 15 min, the mixture was vigorously mixed using a 1 ml pipette for 1 min. Supernatants from the two steps were combined and passed through 70 μm filters and stained for FACS (below).
Isolation of cells from the lamina propria (LP). The small intestines were opened longitudinally and washed in ice-cold PBS. For scRNA-seq, roughly 0.5 cm of fragments from each of the distal, middle and proximal regions without visible PPs were collected. Epithelial cells were dissociated by tissue rotation in pre-warmed (37° C.) PBS containing 10 mM EDTA at 37° C. for 15 min, followed by additional incubation on ice for 15 min. Tissues were then shaken vigorously. […]

B1: OVA (protein, UniProt P01012 2-386, looked up)
Ovalbumin: GSIGAASMEFCFDVFKELKVHHANENIFYCPIAIMSALAMVYLGAKDSTRTQINKVVRFDKLPGFGDSIEAQCGTSVNVHSSLRDILNQITKPNDVYSFSLASRLYAEERYPILPEYLQCVKELYRGGLEPINFQTAADQARELINSWVESQTNGIIRNVLQPSSVDSQTAMVLVNAIVFKGLWEKAFKDEDTQAMPFRVTEQESKPVQMMYQIGLFRVASMASEKMKILELPFASGTMSMLVLLPDEVSGLEQLESIINFEKLTEWTSSNVMEERKIKVYLPRMKMEEKYNLTSVLMAMGITDVFSSSANLSGISSAESLKISQAVHAAHAEINEAGREVVGSAEAGVDAASVSEEFRADHPFLFCIKHIATNAVLFFGRCVSP
For B1, the “Tsc22d3 LN (average fold change)” value (PP, cluster ID 9, OVA vs PBS) was 1.031, the “Tubb5 LN (average fold change)” value (PP, cluster ID 9, OVA vs PBS) was −0.244 and the “Uba52 LN (average fold change)” value (PP, cluster ID 9, OVA vs PBS) was 0.365. The “Ubb LN (average fold change)” value (PP, cluster ID 9, OVA vs PBS) was −0.190, the “Wdr89 LN (average fold change)” value (PP, cluster ID 9, OVA vs PBS) was 0.469 and the “Zfp36l2 LN (average fold change)” value (PP, cluster ID 9, OVA vs PBS) was 1.590. The “1110059E24Rik percentage of expressing cells in OVA-treated group” value (PP, cluster ID 10) was 0.507, the “Apobec1 percentage of expressing cells in OVA-treated group” value (PP, cluster ID 10) was 0.807 and the “Basp1 percentage of expressing cells in OVA-treated group” value (PP, cluster ID 10) was 0.755. For the same molecule, the “Btg1 percentage of expressing cells in OVA-treated group” value (PP, cluster ID 10) was 0.985, the “Cd47 percentage of expressing cells in OVA-treated group” value (PP, cluster ID 10) was 0.602 and the “Crlf3 percentage of expressing cells in OVA-treated group” value (PP, cluster ID 10) was 0.658. For the same molecule, the “Ddit4 percentage of expressing cells in OVA-treated group” value (PP, cluster ID 10) was 0.296, the “Dusp1 percentage of expressing cells in OVA-treated group” value (PP, cluster ID 10) was 0.451 and the “Egln2 percentage of expressing cells in OVA-treated group” value (PP, cluster ID 10) was 0.558. For the same molecule, the “Hspa8 percentage of expressing cells in OVA-treated group” value (PP, cluster ID 10) was 0.975, the “Igha percentage of expressing cells in OVA-treated group” value (PP, cluster ID 10) was 0.405 and the “Napsa percentage of expressing cells in OVA-treated group” value (PP, cluster ID 10) was 0.776. The “Ppp1r21 percentage of expressing cells in OVA-treated group” value (PP, cluster ID 10) was 0.165, the “Rsrp1 percentage of expressing cells in OVA-treated group” value (PP, cluster ID 10) was 0.722 and the “Sesn1 percentage of expressing cells in OVA-treated group” value (PP, cluster ID 10) was 0.402. For the same molecule, the “Sh3glb2 percentage of expressing cells in OVA-treated group” value (PP, cluster ID 10) was 0.187, the “Tsc22d3 percentage of expressing cells in OVA-treated group” value (PP, cluster ID 10) was 0.689 and the “Ttc7 percentage of expressing cells in OVA-treated group” value (PP, cluster ID 10) was 0.244. The “Uba52 percentage of expressing cells in OVA-treated group” value (PP, cluster ID 10) was 0.985, the “Zfp36l2 percentage of expressing cells in OVA-treated group” value (PP, cluster ID 10) was 0.68 and the “1110059E24Rik LN (average fold change)” value (PP, cluster ID 10, OVA vs PBS) was 0.715. The “Apobec1 LN (average fold change)” value (PP, cluster ID 10, OVA vs PBS) was 0.309, the “Basp1 LN (average fold change)” value (PP, cluster ID 10, OVA vs PBS) was −0.516 and the “Btg1 LN (average fold change)” value (PP, cluster ID 10, OVA vs PBS) was 0.438. The “Cd47 LN (average fold change)” value (PP, cluster ID 10, OVA vs PBS) was 0.638, the “Crlf3 LN (average fold change)” value (PP, cluster ID 10, OVA vs PBS) was 0.396 and the “Ddit4 LN (average fold change)” value (PP, cluster ID 10, OVA vs PBS) was 0.864. For the same molecule, the “Dusp1 LN (average fold change)” value (PP, cluster ID 10, OVA vs PBS) was 0.614, the “Egln2 LN (average fold change)” value (PP, cluster ID 10, OVA vs PBS) was 0.624 and the “Hspa8 LN (average fold change)” value (PP, cluster ID 10, OVA vs PBS) was −0.286. For the same molecule, the “Igha LN (average fold change)” value (PP, cluster ID 10, OVA vs PBS) was 0.162, the “Napsa LN (average fold change)” value (PP, cluster ID 10, OVA vs PBS) was 0.374 and the “Ppp1r21 LN (average fold change)” value (PP, cluster ID 10, OVA vs PBS) was 1.045. For the same molecule, the “Rsrp1 LN (average fold change)” value (PP, cluster ID 10, OVA vs PBS) was −0.187, the “Sesn1 LN (average fold change)” value (PP, cluster ID 10, OVA vs PBS) was 1.071 and the “Sh3glb2 LN (average fold change)” value (PP, cluster ID 10, OVA vs PBS) was 0.383. The “Tsc22d3 LN (average fold change)” value (PP, cluster ID 10, OVA vs PBS) was 1.088, the “Ttc7 LN (average fold change)” value (PP, cluster ID 10, OVA vs PBS) was 1.338 and the “Uba52 LN (average fold change)” value (PP, cluster ID 10, OVA vs PBS) was 0.287. The “Zfp36l2 LN (average fold change)” value (PP, cluster ID 10, OVA vs PBS) was 1.856, the “Jund percentage of expressing cells in OVA-treated group” value (PP, cluster ID 11) was 0.855 and the “Jund LN (average fold change)” value (PP, cluster ID 11, OVA vs PBS) was −0.624. For the same molecule, the “1600014C10Rik: percentage of expressing cells in OVA-treated group” value (cluster ID 4, PP) was 0.185, the “2010300C02Rik: percentage of expressing cells in OVA-treated group” value (cluster ID 4, PP) was 0.518 and the “2310001H17Rik: percentage of expressing cells in OVA-treated group” value (cluster ID 4, PP) was 0.214. For the same molecule, the “4921524J17Rik: percentage of expressing cells in OVA-treated group” value (cluster ID 4, PP) was 0.161, the “Alyref: percentage of expressing cells in OVA-treated group” value (cluster ID 4, PP) was 0.141 and the “Amd1: percentage of expressing cells in OVA-treated group” value (cluster ID 4, PP) was 0.192. For the same molecule, the “Asb2: percentage of expressing cells in OVA-treated group” value (cluster ID 4, PP) was 0.548, the “Azin1: percentage of expressing cells in OVA-treated group” value (cluster ID 4, PP) was 0.135 and the “Bin3: percentage of expressing cells in OVA-treated group” value (cluster ID 4, PP) was 0.235. For the same molecule, the “Bzw1: percentage of expressing cells in OVA-treated group” value (cluster ID 4, PP) was 0.321, the “Cacybp: percentage of expressing cells in OVA-treated group” value (cluster ID 4, PP) was 0.293 and the “Cd69: percentage of expressing cells in OVA-treated group” value (cluster ID 4, PP) was 0.737. The “Cdkn1a: percentage of expressing cells in OVA-treated group” value (cluster ID 4, PP) was 0.256, the “Clec2d: percentage of expressing cells in OVA-treated group” value (cluster ID 4, PP) was 0.261 and the “Cwc25: percentage of expressing cells in OVA-treated group” value (cluster ID 4, PP) was 0.12. For the same molecule, the “D16Ertd472e: percentage of expressing cells in OVA-treated group” value (cluster ID 4, PP) was 0.175, the “Dnaja1: percentage of expressing cells in OVA-treated group” value (cluster ID 4, PP) was 0.705 and the “Dnajb9: percentage of expressing cells in OVA-treated group” value (cluster ID 4, PP) was 0.18. For the same molecule, the “Egln3: percentage of expressing cells in OVA-treated group” value (cluster ID 4, PP) was 0.172, the “Fam46a: percentage of expressing cells in OVA-treated group” value (cluster ID 4, PP) was 0.099 and the “Fibp: percentage of expressing cells in OVA-treated group” value (cluster ID 4, PP) was 0.178. The “Furin: percentage of expressing cells in OVA-treated group” value (cluster ID 4, PP) was 0.382, the “Gatad1: percentage of expressing cells in OVA-treated group” value (cluster ID 4, PP) was 0.155 and the “Gcnt2: percentage of expressing cells in OVA-treated group” value (cluster ID 4, PP) was 0.144. For the same molecule, the “Gimap3: percentage of expressing cells in OVA-treated group” value (cluster ID 4, PP) was 0.536, the “Git2: percentage of expressing cells in OVA-treated group” value (cluster ID 4, PP) was 0.3 and the “Gnb1: percentage of expressing cells in OVA-treated group” value (cluster ID 4, PP) was 0.419.
